1 molecule from patent US20250361297A1, “ANTI- SIGLEC-15 BINDING MOLECULES AND METHODS OF USE” (ADAPTAM THERAPEUTICS, S.L., priority 2024, published 2025) can be followed below.

Assay [1] addresses T1, mutant version of Siglec-15 (R143A) (Homo sapiens, UniProt Q6ZMC9, R143A).
T1 construct: expressed in transfected cells; host or cells: HEK293T
T1 sequence (Q6ZMC9 20-328 R143A): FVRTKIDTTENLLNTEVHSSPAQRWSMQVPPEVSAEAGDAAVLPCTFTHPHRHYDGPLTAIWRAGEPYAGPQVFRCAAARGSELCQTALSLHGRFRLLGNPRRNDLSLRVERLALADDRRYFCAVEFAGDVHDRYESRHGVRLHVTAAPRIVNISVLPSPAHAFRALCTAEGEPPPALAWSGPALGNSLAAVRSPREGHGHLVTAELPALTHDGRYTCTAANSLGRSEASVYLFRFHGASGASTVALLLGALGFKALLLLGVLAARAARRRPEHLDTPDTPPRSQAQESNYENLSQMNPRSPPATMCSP
In words: Flow cytometry binding to HEK293T cells expressing mutant Siglec-15 (R143A). The note with it: flow cytometry (FIG. 20, FIG. 21). How it is done: Assessment of the binding of anti-Siglec-15 antibodies to HEK293T cells expressing full length human Siglec-15, or mutant human Siglec-15 (R143A) or the domain 2 of human Siglec-15 by Flow cytometry: Siglec-15+, Siglec-15+R143A, and Siglec-15 Domain 2 (D2) HEK293T cells were detached using tryple and washed once with PBS, resuspended in 1× flow cytometry buffer (PBS with 1% FBS) at approximately 1-2×10^6 cells/mL. Then, anti-Siglec-15 mAbs were added to the cell suspension at the desired concentration, starting at 10 μg/mL and performing 1/3 dilutions. Cells were incubated with the indicated antibodies for 30-60 minutes at 4° C. in the dark to prevent degradation of the fluorescent signal. After the primary antibody incubation, cells were washed twice with PBS or flow cytometry buffer by centrifuging at 300-500× g for 5 minutes and the pellet resuspended in fresh buffer. The following antibody was added: anti-human IgG-PE at a 1:500 dilution. Cells were incubated with the secondary antibody for 30 minutes at 4° C. in the dark. Finally, cells were washed twice with PBS or flow cytometry buffer to remove any excess secondary antibody and acquired in a flow cytometer.
Background: A flow cytometer gives signals particle by particle.

In another assay the test system is osteoclast activation. Kind of assay: Osteoclast activation in vitro (CTX-I in culture medium). Format: cell-based. The note with it: relative to baseline; control odanacatib 1 μM (FIG. 47).
Assay [2] addresses T2, recombinant human Siglec-15 protein (Homo sapiens, UniProt Q6ZMC9).
T2 construct: purchased Bonopusbio CW70-50 ug
T2 sequence (Q6ZMC9 20-263 limits assumed): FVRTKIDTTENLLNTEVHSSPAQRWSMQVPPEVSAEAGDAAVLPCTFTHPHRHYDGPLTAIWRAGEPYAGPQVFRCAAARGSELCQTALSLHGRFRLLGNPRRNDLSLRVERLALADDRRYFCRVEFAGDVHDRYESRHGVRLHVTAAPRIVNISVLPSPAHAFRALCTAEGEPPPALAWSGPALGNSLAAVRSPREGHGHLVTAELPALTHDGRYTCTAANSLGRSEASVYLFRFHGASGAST
Kind of assay: BIACORE surface plasmon resonance binding affinity. The conditions noted are these: SPR; antibody as ligand, human Siglec-15 as analyte; 1:1 Langmuir model. The text has this: Binding affinity determination of anti-Siglec-15 monoclonal antibodies using BIACORE surface plasmon resonance: The purified anti-Siglec-15 monoclonal antibodies (mAbs) were characterized for binding affinity and binding kinetics by Biacore T200 system (GE healthcare, Pittsburgh, PA, USA). Anti-Siglec-15 antibodies were covalently linked to a CM5 chip (carboxy methyl dextran coated chip, GE healthcare, Cat #BR-1005-30) via primary amines, using a standard amine coupling kit provided by Biacore (GE healthcare, Pittsburgh, PA, USA). Un-reacted moieties on the biosensor surface were blocked with ethanolamine. Then, serially diluted recombinant human Siglec-15-his protein (Bonopusbio, CW70-50 ug), 2-fold serial dilution in HBS-EP buffer starting at 80 nM, were respectively flown onto the chip at a flow rate of […]. The antigen-antibody association kinetics was followed for 2 minutes, and the dissociation kinetics was followed for 10 minutes. The association and dissociation curves were fit to a 1:1 Langmuir binding model using BIAcore evaluation software. The dissociation rate (kd) and association constant (ka) rate constants were obtained using Evaluation Software. The equilibrium dissociation constant (KD) was calculated from the ratio of kd over ka.
A general note: In SPR one partner is held on a chip, and binding of the other changes the refractive index at the surface.

The subject of assay [3] is truncated second domain (D2) of Siglec-15. Kind of assay: Flow cytometry binding to HEK 293T cells expressing only the truncated second domain (D2) of Siglec-15. More on the design: species or system human. The conditions noted are these: HEK 293T cells expressing only truncated D2; flow cytometry (FIG. 2B, FIG. 17). The text has this: Flow cytometry was used to interrogate the binding of anti-Siglec-15 monoclonal antibodies to cells expressing only a truncated version of Siglec-15 comprising solely of the second domain (D2). This strategy was useful to identify clones that recognize epitopes outside of the canonical sialic acid binding site located in the first domain (D1).
For the ELISA, antigens were immobilized on high-binding plates, and the full-length IgG1 anti-Siglec-15 antibodies were titrated beginning at a concentration of 10 μg/ml. After washing, an anti-human IgG Fab-specific HRP-conjugated secondary antibody was applied for detection. Palivizumab was included as the negative control. Optical densities were measured to generate binding curves from which EC50 values were derived. […] Flow cytometric analysis was conducted, and fluorescence intensity was used to calculate EC50 values, providing a quantitative assessment of the antibodies' cell surface binding efficacy. […] Antibodies were titrated starting at a concentration of 10 μg/ml and detected with an anti-human Fc-specific secondary antibody to detect bound primary antibodies. The half-maximal effective concentration (EC50) was calculated for each antibody to determine its binding affinity to mouse Siglec-15. Results were analyzed and ranked based on the EC50 values. […]

“Also recorded” adds a separate entry of the source.

B1: S15B1: parental mouse anti-Siglec-15 monoclonal antibody from hybridoma; VH SEQ ID NO: 18, VL SEQ ID NO: 19 (antibody, V domains shown)
VH: QVQLQQSGPELVKPGASVKISCKASGYAFSSSWMNWVKQRPGKGLEWIGRIYPGHGETNYNGKFKDKATVTADKSSSTTYMQLSSLTSEDSAVYFCARVDNSDPYYFDYWGQGTTLTVSS
VL: DIVLTQSPASLAVSLGQRATISCRASKSVSTSGYSYMHWYQQKPGQPPKLLIYLASNLESGVPARFSGSGSGTDFTLNIHPVEEEDAATYYCQHGRELPFTFGSGTKLEIK
modifications: Clone S15B1 VH; Clone S15B1 VL
On to B1, for which the “binding to HEK293T cells expressing mutated Siglec-15 (R143A)” value in assay [1] is listed as “demonstrated binding”. Also, the “effect on osteoclast activation (CTX-I)” value in the assay on osteoclast activation is listed as “did not significantly affect”. Further, in assay [2], the “ka” value was 4.46e+06 M⁻¹ s⁻¹ and the “kd” value was found to be 0.000233 s⁻¹. Further, the “binding to D2 of Siglec-15” value in assay [3] is “displayed binding affinity for D2; also recorded: significant binding to D2”.
